Source: article PMC11811190, “Cryo-EM structures of the BAF-Lamin A/C complex bound to nucleosomes” (Nature Communications, 2025)

Legend:
[1] = molecular target: T1, Lamin A/C IgF domain (411-566) (human, UniProt P02545 411-566); experiment: cryo-EM structure; BAF-Lamin A/C IgF-nucleosome complex, high gel mobility (fraction 1); BAF 3-fold, Lamin A/C IgF 6-fold over 0.93 uM nucleosome (193 bp DNA), 30 min 30 °C, GraFix with glutaraldehyde; 3.82 Å; details: both partners purified
T1 construct: Lamin A/C, human, residues 411-566 (IgF domain); MBP cut on-column with TEV protease; also called Lamin A/C (411-566); Ig-fold domain of Lamin A/C; source: E. coli Rosetta 2 (DE3), purified (amylose resin, Superdex 75); not shown: MBP, N-terminal, cleaved
T1 sequence (looked up): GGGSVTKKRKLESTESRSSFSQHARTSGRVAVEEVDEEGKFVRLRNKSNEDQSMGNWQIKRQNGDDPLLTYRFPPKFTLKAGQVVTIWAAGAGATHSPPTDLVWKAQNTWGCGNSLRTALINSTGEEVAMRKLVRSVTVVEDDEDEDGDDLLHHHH

[2] = molecular target: the molecule itself; experiment: as above

B1: Barrier-to-autointegration factor (BAF) (natural protein, human, UniProt O75531 1-89, looked up)
chain: MTTSQKHRDFVAEPMGEKPVGSLAGIGEVLGKKLEERGFDKAYVVLGQFLVLKKDEDLFREWLKDTCGANAKQSRDCFGCLREWCDAFL
notes: Barrier-to-autointegration factor (BAF), human, full length; His tag cut with thrombin; also called human BAF; full-length BAF; not shown: His6, N-terminal, cleaved
[1]
  binding result: binds
[2]
  binding result: binds
